Measurements reported in the supplement of paper PMC9732359.
± gives the uncertainty stated by the source.

Assay: protein stability index of a GFP-peptide fusion (yeast GPS) (PSI 1-4); higher = more stable; sorted into four equal gates, so the index is relative within each strain
How it was run: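 Plasmids in a pooled yeast library fused tiled 17-residue yeast protein peptides downstream of GFP and also expressed Cherry. Mid-log cultures grown without leucine were sorted into four equal gates by GFP/Cherry fluorescence ratio. Each gate's plasmids were PCR-amplified and Illumina-sequenced, and reads were matched to strains by barcodes. The protein stability index is derived by multiplying each gate's read frequency by its gate number and summing the results.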

Row | Sequence | protein stability index (doa10∆) | protein stability index (pdr5∆) | protein stability index (san1∆) | protein stability index (ubr1∆)
1 | SEVGNCSGSGMGGVSAL [FAS2] | 3.15 ± 0.075 | 3.38 ± 0.064 | 3.29 ± 0.056 | 3.31 ± 0.05
2 | RESRIVSTEGNVPQTLA [RPL21A] | 2.13 ± 0.08 | 2.25 ± 0.082 | 2.94 ± 0.1 | 2.3 ± 0.095
3 | GTFGGDGMYSESKLSLE [FAS2] | 2.91 ± 0.046 | 2.66 ± 0.051 | 3.35 ± 0.036 | 2.87 ± 0.04
4 | QKVSENFEAVFERLVPR [SMC3] | 2.53 ± 0.28 |  |  | 
5 | KDGAKFIEVRNFLGDKK [RPL9A] |  |  |  | 1.35 ± 0.27
6 | YQWRDLIARRDDESPRF [RRP6] | 3.23 ± 0.077 | 3.42 ± 0.067 | 3.24 ± 0.057 | 3.26 ± 0.068
7 | KKQKLIEEQDKKVQALQ [ITC1] | 3.06 ± 0.094 | 2.6 ± 0.079 | 2.61 ± 0.087 | 2.82 ± 0.068
8 | IAAMVAQKCGWTIPHKK [SIR2] | 2.33 ± 0.096 | 2.41 ± 0.2 | 2.06 ± 0.15 | 2.35 ± 0.051
9 | DQNPIQVVVDAITNTGP [RPS5] | 2.35 ± 0.053 | 2.79 ± 0.041 | 2.76 ± 0.061 | 2.13 ± 0.041
10 | LVSDSEIIDLNLHSFTK [POP6] | 2.62 ± 0.072 | 2.81 ± 0.069 | 2.31 ± 0.07 | 2.71 ± 0.048
11 | YISKIGEKIDSNKPIFL [SWI1] | 3.02 ± 0.084 | 2.86 ± 0.06 | 3.01 ± 0.07 | 3.19 ± 0.09
12 | SHTQNIGHLIKTRFKGS [SMC2] | 2.94 ± 0.11 | 1.98 ± 0.086 | 1.96 ± 0.13 | 2.27 ± 0.066
13 | SKDVSRLLSALGPRGVS [SRP21] | 3.09 ± 0.14 | 2.54 ± 0.28 |  | 2.83 ± 0.084
14 | TMTMDVFNDAHVLNKVT [RPN1] | 2.26 ± 0.065 | 2.25 ± 0.053 | 2.4 ± 0.073 | 2.25 ± 0.045
15 | ALPNIENDIIKLSDSKT [BRR2] | 2.79 ± 0.054 | 3.16 ± 0.055 | 2.82 ± 0.044 | 3.23 ± 0.054
16 | IYLSRFLIKASVREINL [SSN8] | 1.83 ± 0.18 | 1.86 ± 0.13 | 2.04 ± 0.13 | 1.25 ± 0.16
17 | SSNKDLEDEKMKFQESL [SMC4] |  | 2.08 ± 0.26 |  | 
18 | ENDIIKLSDSKTSNIES [BRR2] |  | 2.48 ± 0.18 | 2.77 ± 0.19 | 3.09 ± 0.15
19 | KQNSSSDINQNDDSSSM [YDL088C/ASM4] | 3.1 ± 0.17 | 2.94 ± 0.08 | 2.58 ± 0.088 | 2.69 ± 0.058
20 | VSEITKLKFFPSGEALI [RPN14] | 2.55 ± 0.089 | 2.76 ± 0.069 | 2.95 ± 0.064 | 3.18 ± 0.059
21 | HFELGGEKKQKGQALQF [RPL42A] | 2.72 ± 0.17 | 2.88 ± 0.1 | 2.46 ± 0.094 | 2.76 ± 0.13
22 | VNNPQEETSHLLTVTPG [RPN10] | 2.62 ± 0.13 | 2.84 ± 0.08 | 2.99 ± 0.14 | 2.86 ± 0.066
23 | HILFQNNPDMMIQPPQQ [ROX3] | 2.94 ± 0.062 | 2.96 ± 0.07 | 3.06 ± 0.066 | 3.02 ± 0.046
24 | EKTLGKSLSKAISTGAK [RPN7] | 2.98 ± 0.19 | 3.42 ± 0.12 | 3.53 ± 0.12 | 3.57 ± 0.19
25 | LVAIFGGQGNTDDYFEE [FAS1] | 3.15 ± 0.12 | 3.48 ± 0.083 | 3.26 ± 0.065 | 3.23 ± 0.064
26 | ISTLFQRDRHTLAYDRG [PRP8] | 2.58 ± 0.14 | 3.21 ± 0.13 | 2.68 ± 0.082 | 2.79 ± 0.058

Row | Sequence | protein stability index (doa10∆) | protein stability index (pdr5∆) | protein stability index (san1∆) | protein stability index (ubr1∆)
27 | PSENDVFYRMQQLRRAL [RPO31] | 2.03 ± 0.056 | 1.94 ± 0.046 | 2.5 ± 0.1 | 2.14 ± 0.067
28 | IHSLIPVAKWFVKFITY [SIN4] | 2.7 ± 0.048 | 2.52 ± 0.04 | 2.77 ± 0.044 | 2.79 ± 0.04
29 | YPLLIRMSYGSHDKKTK [SRP14] | 2.61 ± 0.06 | 2.49 ± 0.069 | 2.57 ± 0.043 | 2.6 ± 0.053
30 | NGALDPKMGVSSSSLEC [RPO31] | 3.21 ± 0.097 | 3.41 ± 0.049 | 3.22 ± 0.067 | 3.21 ± 0.047
31 | LIEKEIQPKITELKKKL [SMC1] | 3.02 ± 0.1 | 2.91 ± 0.089 | 2.9 ± 0.11 | 3.02 ± 0.077
32 | CVYSGLIPDGRHLVNRG [PRE10] |  | 1.82 ± 0.22 | 2.1 ± 0.14 | 
33 | SDPQMKVFDTLTRFSHD [RPN1] |  | 2.84 ± 0.15 | 2.78 ± 0.18 | 2.94 ± 0.21
34 | TKKPLMVKNVKPSSPPD [SIR4] | 2.93 ± 0.061 | 2.66 ± 0.039 | 2.55 ± 0.058 | 2.69 ± 0.05
35 | NAKESNYTDLIWFPEDF [MED1] | 3.06 ± 0.094 | 3.47 ± 0.17 | 3.17 ± 0.12 | 2.28 ± 0.052
36 | ATDEESVRLQRFYQLGV [CSN12] | 3.13 ± 0.16 | 3.13 ± 0.15 | 2.92 ± 0.11 | 3.13 ± 0.099
37 | IALNLASKKFGKICLIL [SSN2] | 2.41 ± 0.11 | 2.83 ± 0.062 | 2.9 ± 0.071 | 3.12 ± 0.061
38 | AELRPLQFKSIREIDVA [RPS7A] | 2.26 ± 0.093 | 1.67 ± 0.1 | 1.97 ± 0.24 | 1.43 ± 0.068
39 | TTPKKIKHKHKKVKLAV [RPS31] | 2.19 ± 0.052 | 1.99 ± 0.1 | 1.34 ± 0.2 | 1.91 ± 0.059
40 | EKIRPLRSRSFKSTESN [YMR129W/POM152] |  |  | 2.87 ± 0.28 | 
41 | TVKLYLPEILNVLCVNI [ECM29] | 1.46 ± 0.047 | 1.49 ± 0.045 | 1.5 ± 0.074 | 1.42 ± 0.045
42 | TNTHPNFLSKIRNINVQ [SNF2] | 1.44 ± 0.049 | 1.68 ± 0.063 | 1.49 ± 0.09 | 1.34 ± 0.031
43 | ILGIAGEDFAVLAGDTR [PRE7] | 3.65 ± 0.22 | 3.2 ± 0.23 | 3.32 ± 0.23 | 3.64 ± 0.076
44 | LTQLLSMMSDGIEHFDI [RPO31] | 2.93 ± 0.073 | 3.05 ± 0.085 | 3.1 ± 0.052 | 2.72 ± 0.089
45 | KLLGIGDIESLFEQLQT [SRP54] | 1.58 ± 0.062 | 2.15 ± 0.069 | 2.2 ± 0.13 | 2.67 ± 0.064
46 | IGSNGSGKSNFFAAIRF [SMC3] | 3.03 ± 0.068 | 3.07 ± 0.066 | 3.02 ± 0.05 | 3.05 ± 0.039
47 | EEKEESNLAATKSMVKI [RPN11] | 3.43 ± 0.12 | 3.41 ± 0.11 | 3.34 ± 0.059 | 3.35 ± 0.098
48 | SEMLAKYSDILLKKATK [CDC53] | 2.62 ± 0.078 | 2.44 ± 0.12 |  | 2.47 ± 0.17
49 | SSLNLEDTPANDSSATR [RPB8] | 2.92 ± 0.067 | 2.85 ± 0.065 | 2.68 ± 0.063 | 3.08 ± 0.048
50 | KTSSQTSLSSKDLSNYR [YMR153W/NUP53] | 2.67 ± 0.055 | 2.54 ± 0.06 | 2.58 ± 0.089 | 2.65 ± 0.039
51 | SSIDKKSSILTVLQKNS [YML103C/NUP188] | 1.79 ± 0.063 | 2.42 ± 0.083 | 2.4 ± 0.067 | 2.46 ± 0.058
52 | LKEPVEDIIKRTSPIDN [NUT2] | 2.97 ± 0.083 | 3.09 ± 0.1 | 2.64 ± 0.1 | 3.2 ± 0.061
